Results from patent US20240360201A1 (BIOCYTOGEN PHARMACEUTICALS BEIJING, published 2024).

B1: C40-6A7 (IgG2) (antibody, V domains shown)
VH: QVQLVQSGAEVKKPGASVKLSCKASGYTFISYYIYWVKQAPGQGLEWIGGINPRNGGTNFNEKFKSRATLTVDTSISTAYMELSRLRSEDTAVYYCTRHGNGVYWGQGTTLTVSS
VL: DVVMTQSPLSLPVTLGQPASISCRSSQSLLHSNGNTYLHWYQQRPGQSPNHLIYQVSNRFSGVPDRFSGSGSGTDFTLKISRVEAEDVGVYFCSQTTHVPWTFGGGTKVEIK
notes: IgG2; also called original anti-CD40 monoclonal antibody
B2: PDL1-C40-6A7-FV3A1 (IgG1) (bispecific antibody)
heavy: EVQLLESGGGLVQPGGSLRLSCAASGFTFSSYIMMWVRQAPGKGLEWVSSIYPSGGITFYADTVKGRFTISRDNSKNTLYLQMNSLRAEDTAVYYCARIKLGTVTTVDYWGQGTLVTVSSASTKGPSVFPLAPSSKSTSGGTAALGCLVKDYFPEPVTVSWNSGALTSGVHTFPAVLQSSGLYSLSSVVTVPSSSLGTQTYICNVNHKPSNTKVDKKVEPKSCDKTHTCPPCPAPELLGGPSVFLFPPKPKDTLMISRTPEVTCVVVDVSHEDPEVKFNWYVDGVEVHNAKTKPREEQYNSTYRVVSVLTVLHQDWLNGKEYKCKVSNKALPAPIEKTISKAKGQPREPQVYTLPPSRDELGGGGSGGGGSDVVMTQSPLSLPVTLGQPASISCRSSQSLLHSNGNTYLHWYQQRPGQSPNHLIYQVSNRFSGVPDRFSGSGSGTDFTLKISRVEAEDVGVYFCSQTTHVPWTFGCGTKVEIKGGGGSGGGGSGGGGSGGGGSQVQLVQSGAEVKKPGASVKLSCKASGYTFISYYIYWVKQAPGQCLEWIGGINPRNGGTNFNEKFKSRATLTVDTSISTAYMELSRLRSEDTAVYYCTRHGNGVYWGQGTTLTVSSGGGGSGGGGSTKNQVSLTCLVKGFYPSDIAVEWESNGQPENNYKTTPPVLDSDGSFFLYSKLTVDKSRWQQGNVFSCSVMHEALHNHYTQKSLSLSPGK
light: QSALTQPASVSGSPGQSITISCTGTSSDVGGYNYVSWYQQHPGKAPKLMIYDVSNRPSGVSNRFSGSKSGNTASLTISGLQAEDEADYYCSSYTSSSTRVFGTGTKVTVLGQPKANPTVTLFPPSSEELQANKATLVCLISDFYPGAVTVAWKADGSPVKAGVETTKPSKQSNNKYAASSYLSLTPEQWKSHRSYSCQVTHEGSTVEKTVAPTECS
notes: IgG1
B3: PDL1-C40-6A7-FV3C (IgG1) (bispecific antibody)
heavy: EVQLLESGGGLVQPGGSLRLSCAASGFTFSSYIMMWVRQAPGKGLEWVSSIYPSGGITFYADTVKGRFTISRDNSKNTLYLQMNSLRAEDTAVYYCARIKLGTVTTVDYWGQGTLVTVSSASTKGPSVFPLAPSSKSTSGGTAALGCLVKDYFPEPVTVSWNSGALTSGVHTFPAVLQSSGLYSLSSVVTVPSSSLGTQTYICNVNHKPSNTKVDKKVEPKSCDKTHTCPPCPAPELLGGPSVFLFPPKPKDTLMISRTPEVTCVVVDVSHEDPEVKFNWYVDGVEVHNAKTKPREEQYNSTYRVVSVLTVLHQDWLNGKEYKCKVSNKALPAPIEKTISKAKGQPREPQVYTLPPSRDELTKNQVSLTCLVKGFYPSDIAVEWESNGGGGSGGGGSDVVMTQSPLSLPVTLGQPASISCRSSQSLLHSNGNTYLHWYQQRPGQSPNHLIYQVSNRFSGVPDRFSGSGSGTDFTLKISRVEAEDVGVYFCSQTTHVPWTFGCGTKVEIKGGGGSGGGGSGGGGSGGGGSQVQLVQSGAEVKKPGASVKLSCKASGYTFISYYIYWVKQAPGQCLEWIGGINPRNGGTNFNEKFKSRATLTVDTSISTAYMELSRLRSEDTAVYYCTRHGNGVYWGQGTTLTVSSGGGGSGGGGSGQPENNYKTTPPVLDSDGSFFLYSKLTVDKSRWQQGNVFSCSVMHEALHNHYTQKSLSLSPGK
light: B2 light
notes: IgG1; scFv inserted between EU 384 and 385
B4: PDL1-C40-6A7-FV3A3 (IgG1) (bispecific antibody)
heavy: EVQLLESGGGLVQPGGSLRLSCAASGFTFSSYIMMWVRQAPGKGLEWVSSIYPSGGITFYADTVKGRFTISRDNSKNTLYLQMNSLRAEDTAVYYCARIKLGTVTTVDYWGQGTLVTVSSASTKGPSVFPLAPSSKSTSGGTAALGCLVKDYFPEPVTVSWNSGALTSGVHTFPAVLQSSGLYSLSSVVTVPSSSLGTQTYICNVNHKPSNTKVDKKVEPKSCDKTHTCPPCPAPELLGGPSVFLFPPKPKDTLMISRTPEVTCVVVDVSHEDPEVKFNWYVDGVEVHNAKTKPREEQYNSTYRVVSVLTVLHQDWLNGKEYKCKVSNKALPAPIEKTISKAKGQPREPQVYTLPPSRDELTKGGGGSGGGGSDVVMTQSPLSLPVTLGQPASISCRSSQSLLHSNGNTYLHWYQQRPGQSPNHLIYQVSNRFSGVPDRFSGSGSGTDFTLKISRVEAEDVGVYFCSQTTHVPWTFGCGTKVEIKGGGGSGGGGSGGGGSGGGGSQVQLVQSGAEVKKPGASVKLSCKASGYTFISYYIYWVKQAPGQCLEWIGGINPRNGGTNFNEKFKSRATLTVDTSISTAYMELSRLRSEDTAVYYCTRHGNGVYWGQGTTLTVSSGGGGSGGGGSNQVSLTCLVKGFYPSDIAVEWESNGQPENNYKTTPPVLDSDGSFFLYSKLTVDKSRWQQGNVFSCSVMHEALHNHYTQKSLSLSPGK
light: B2 light
notes: IgG1; scFv inserted between EU 360 and 361
B5: PDL1-C40-6A7-FV3A2 (IgG1) (bispecific antibody)
heavy: EVQLLESGGGLVQPGGSLRLSCAASGFTFSSYIMMWVRQAPGKGLEWVSSIYPSGGITFYADTVKGRFTISRDNSKNTLYLQMNSLRAEDTAVYYCARIKLGTVTTVDYWGQGTLVTVSSASTKGPSVFPLAPSSKSTSGGTAALGCLVKDYFPEPVTVSWNSGALTSGVHTFPAVLQSSGLYSLSSVVTVPSSSLGTQTYICNVNHKPSNTKVDKKVEPKSCDKTHTCPPCPAPELLGGPSVFLFPPKPKDTLMISRTPEVTCVVVDVSHEDPEVKFNWYVDGVEVHNAKTKPREEQYNSTYRVVSVLTVLHQDWLNGKEYKCKVSNKALPAPIEKTISKAKGQPREPQVYTLPPSRDELTGGGGSGGGGSDVVMTQSPLSLPVTLGQPASISCRSSQSLLHSNGNTYLHWYQQRPGQSPNHLIYQVSNRFSGVPDRFSGSGSGTDFTLKISRVEAEDVGVYFCSQTTHVPWTFGCGTKVEIKGGGGSGGGGSGGGGSGGGGSQVQLVQSGAEVKKPGASVKLSCKASGYTFISYYIYWVKQAPGQCLEWIGGINPRNGGTNFNEKFKSRATLTVDTSISTAYMELSRLRSEDTAVYYCTRHGNGVYWGQGTTLTVSSGGGGSGGGGSKNQVSLTCLVKGFYPSDIAVEWESNGQPENNYKTTPPVLDSDGSFFLYSKLTVDKSRWQQGNVFSCSVMHEALHNHYTQKSLSLSPGK
light: B2 light
notes: IgG1; scFv inserted between EU 359 and 360
B6: PDL1-C40-6A7-FV3A (IgG1) (bispecific antibody)
heavy: EVQLLESGGGLVQPGGSLRLSCAASGFTFSSYIMMWVRQAPGKGLEWVSSIYPSGGITFYADTVKGRFTISRDNSKNTLYLQMNSLRAEDTAVYYCARIKLGTVTTVDYWGQGTLVTVSSASTKGPSVFPLAPSSKSTSGGTAALGCLVKDYFPEPVTVSWNSGALTSGVHTFPAVLQSSGLYSLSSVVTVPSSSLGTQTYICNVNHKPSNTKVDKKVEPKSCDKTHTCPPCPAPELLGGPSVFLFPPKPKDTLMISRTPEVTCVVVDVSHEDPEVKFNWYVDGVEVHNAKTKPREEQYNSTYRVVSVLTVLHQDWLNGKEYKCKVSNKALPAPIEKTISKAKGQPREPQVYTLPPSRDEGGGGSGGGGSDVVMTQSPLSLPVTLGQPASISCRSSQSLLHSNGNTYLHWYQQRPGQSPNHLIYQVSNRFSGVPDRFSGSGSGTDFTLKISRVEAEDVGVYFCSQTTHVPWTFGCGTKVEIKGGGGSGGGGSGGGGSGGGGSQVQLVQSGAEVKKPGASVKLSCKASGYTFISYYIYWVKQAPGQCLEWIGGINPRNGGTNFNEKFKSRATLTVDTSISTAYMELSRLRSEDTAVYYCTRHGNGVYWGQGTTLTVSSGGGGSGGGGSVSLTCLVKGFYPSDIAVEWESNGQPENNYKTTPPVLDSDGSFFLYSKLTVDKSRWQQGNVFSCSVMHEALHNHYTQKSLSLSPGK
light: B2 light
notes: IgG1; also called G3

Molecular target: human CD40 (hCD40-his) (human, UniProt P25942 21-193)
Sequence (P25942 21-193 limits assumed): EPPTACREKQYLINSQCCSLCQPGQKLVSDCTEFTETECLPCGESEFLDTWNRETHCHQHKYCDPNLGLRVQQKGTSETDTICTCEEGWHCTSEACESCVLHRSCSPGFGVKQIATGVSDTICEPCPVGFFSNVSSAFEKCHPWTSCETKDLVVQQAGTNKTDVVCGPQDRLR
Test: SPR Biacore T200; binder captured on protein A chip, target as analyte
Procedure: Binding affinity to human CD40 of the obtained fusion proteins PDL1-C40-6A7-FV3A (IgG1), PDL1-C40-6A7-FV3A-IgG4, PDL1-C40-6A7-FV3C (IgG1), PDL1-C40-6A7-FV3A1 (IgG1), PDL1-C40-6A7-FV3A2 (IgG1), and PDL1-C40-6A7-FV3A3 (IgG1) were determined by surface plasmon resonance (SPR) using Biacore™ T200 biosensor equipped with pre-immobilized protein A sensor chips. The original anti-CD40 monoclonal antibody C40-6A7 IgG2 (6A7, VH SEQ ID NO: 91, VL SEQ ID NO: 92), which the scFV was derived from, was used as a control.

| Binder | Kd [nM] | koff [s⁻¹] | kon [M⁻¹ s⁻¹] |
| --- | --- | --- | --- |
| B1 | 3.09 | 0.00171 | 554000 |
| B2 | 0.63 | 0.000388 | 616000 |
| B3 | 0.865 | 0.000472 | 546000 |
| B4 | 1.04 | 0.000379 | 364000 |
| B5 | 0.847 | 0.000375 | 443000 |
| B6 | 1.09 | 0.000427 | 391000 |
